Patent US20230151437A1, “USE OF PROTEIN ASSEMBLIES TO RECORD CELLULAR EVENTS” (President and Fellows of Harvard College, priority 2021, published 2023)

Experiments:
HEK cells [1] = test: Live-dead assay in HEK cells expressing iPAK4 assemblies; type: cell-based; details: n=24 fields of view
Excerpt: FIGS. 9A-9C show a live-dead assay to assess the effect of iPAK4 assemblies on cell health. Related to FIG. 1A, FIG. 9A provides images of HEK293T cells expressing CMV::iPAK4 (95%) and CMV::HT-iPAK4 (5%). Many iPAK4 assemblies can be identified in a magnified view. […] Live cells (calcein-AM), dead cells (EthD-1), and HaloTag-iPAK4 stained with JFX608 are shown. FIG. 9C provides a statistical comparison of the dead cell population in iPAK4+ and iPAK4− groups. Each point represents one field of view. Two dishes per condition were investigated. […] The statistical comparison was performed by student's t-test. Lower and upper bounds of the box plot: 25th and 75th percentile; lower and upper whiskers: minimum and maximum; squares: mean; center lines: median.
It was then determined whether the iPAK4 assemblies affect cell survival, as the assemblies often grew longer than the cell diameters (FIG. 6A).

cultured neurons [2] = test: Live-dead assay in cultured neurons expressing iPAK4 assemblies; type: cell-based, rat; details: assemblies grown for 6 days
Description: Related to FIG. 5. […] Staining of live cells (calcein-AM) and dead cells (EthD-1) is shown. The assay was performed at day 6 after lentiviral infection. Many iPAK4 assemblies are present in FIG. 22A (assemblies share the channel with calcein-AM). Scale bars: 200 μm. FIG. 22C provides a statistical comparison of the live-cell and dead-cell populations, and the dead/live cell ratio in iPAK4+ and iPAK4− groups (N=5 fields of view per group).
To test for effects of iPAK4 assemblies on neuronal survival, iPAK4 (95%) and HT-iPAK4 (5%) were lentivirally expressed in cultured neurons, the assemblies were allowed to grow for 6 days, and then a live-dead assay was performed (FIGS. 22A-22C). […] The iPAK4-expressing neurons had typical soma and neurite structures, similar to those observed in healthy neurons.
Primary neuron culture: Before the plating of primary hippocampal neurons, 14 mm glass-bottom dishes were first incubated with 40 μg/ml poly-D-lysine (PDL) in PBS at room temperature for 1 h and subsequentially with 20 μg/ml laminin (Fisher Scientific; 23-017-015) at 4° C. overnight, followed by thorough wash with PBS. […] Neuronal health was monitored daily from DIV1 to DIV7. […]

cultured neurons [3] = test: Patch clamp electrophysiology of neurons with iPAK4 assemblies; type: cell-based, rat; details: N=11, mean±s.e.m.
Description: FIGS. 5A-5H show protein ticker tape recordings of cFos activation in neurons. FIG. 5A provides an image of a cultured neuron expressing lentiviral CMV::iPAK4 (90%) and CMV::eGFP-iPAK4 (10%). Scale bar 50 μm. […] Spikes were evoked by a current injection of 100 pA. […] Error bars show mean±s.e.m. Two-sided Student's t-test was employed for data comparison. […] Scale bar 5 μm.
Whether iPAK4 assemblies affected neuronal electrophysiology was then tested. Neurons infected with lentivirus encoding CMV::iPAK4 (90%) and CMV::eGFP-iPAK4 (10%) grew single straight assemblies (FIG. 5A). Patch clamp recordings were used to compare the electrophysiology of neurons with and without assemblies. Although in many cases the assembly length was several times longer than the soma diameter, neurons with assemblies spiked normally (FIG. 5B), and had membrane resistance, membrane capacitance, resting potential, and rheobase that were statistically indistinguishable from neurons without assemblies (N=11 neurons with assemblies, N=12 without, two-sided Student's t-test, FIG. 5C).
Patch clamp electrophysiology: Whole-cell recordings were performed in extracellular buffer containing (in mM): 125 NaCl, 2.5 KCl, 15 HEPES, 25 D-glucose, 1 MgCl2, and 2 CaCl2 (pH=7.2-7.3 with NaOH). Assembly-forming and non-forming (control) neurons were visualized with a home-built inverted epifluorescence microscope. Experiments were made at 23° C. under ambient atmosphere. The whole-cell internal solution comprised (in mM): 8 NaCl, 130 KMeSO3, 10 HEPES, 5 KCl, 0.5 EGTA, 4 Mg-ATP, and 0.3 Na3-GTP. The pH was adjusted to 7.2-7.3 with KOH and osmolarity was set to 290-295 mOsm/L. Borosilicate glass pipettes were used with a resistance of 3-5 MΩ (1.5 mm OD). Signals were acquired and filtered at 4 kHz with the internal Bessel filter using a Multiclamp 700B (Molecular Devices) and digitized with PCIe-6323 (National Instruments) at 10 kHz. Following the whole-cell configuration, membrane capacitance (Cm), and membrane resistance (Rm) were estimated under voltage-clamp mode. Measurements of resting membrane potential (Vrest), rheobase, and spike rates were made under current-clamp mode. Rheobase was defined as the minimum current step (in 500 ms duration) required for any spike onset. Whole-cell recordings were monitored and analyzed using a custom code written in LabView and Matlab.

HEK cells [4] = test: HT dye switch fluorescence profiles of HT-iPAK4 assemblies in HEK cells; type: cell-based; details: dishes fixed at 8 h vs 30 h (22 h, one day)
Description: To test whether assemblies could encode HT dye timestamps, HEK cells growing HT-iPAK4 assemblies were successively washed with different colors of HT-ligand dyes at Δt=2 h intervals in the sequence JF503, JF669, JFX608, JF503, JF669 (FIG. 2A; see FIGS. 11A-11B for dye structures, photophysical properties, and synthesis of JFX608). The cells were then fixed and imaged with spectrally resolved confocal microscopy. Clear progression of colored bands matching the sequence of dye additions was observed.
To test the limits of how fast dye transitions could be encoded, assemblies were made with seven dye switches at Δt=1 h. At this short interval, peaks were still visible, but their amplitude was suppressed relative to the parts of the assembly with no dye switches, indicating incomplete transitions in dye labeling (FIG. 12E).
A protein ticker tape may stably store its information for extended times. […] The fluorescence profiles for the section of the assemblies that grew concurrently (from t=0 to 8 h) were then compared. […]
Image processing and data analysis: Images of individual assemblies were rotated to align the long axis to the x-axis. Fluorescence profiles were then calculated as the median fluorescence in each spectral channel across the width of the assembly. […] Dye transitions were identified as local maxima in the second derivative of the dye fluorescence as a function of position. […]

B1: iPAK4: fusion of the catalytic domain of the Pak4 kinase and the 38 amino acid iBox domain of its inhibitor Inka1 (SEQ ID NO: 1) (protein)
chain: MDYKDDDDKSGSEAEDWTAALLNRGRSRQPLVLGDNCFADLVHNWMELPEEFPAAPAVPGPPGPRSPQREPQRVSHEQFRAALQLVVDPGDPRSYLDNFIKIGEGSTGIVCIATVRSSGKLVAVKKMDLRKQQRRELLFNEVVIMRDYQHENVVEMYNSYLVGDELWVVMEFLEGGALTDIVTHTRMNEEQIAAVCLAVLQALSVLHAQGVIHRDIKSDSILLTHDGRVKLSDFGFCAQVSKEVPRRKSLVGTPYWMAPELISRLPYGPEVDIWSLGIMVIEMVDGEPPYFNEPPLKAMKMIRDNLPPRLKNLHKVSPSLKGFLDRLLVRDPAQRATAAELLKHPFLAKAGPPASIVPLMRQNRTR
dead cells (HEK cells [1]): 0.267±0.139%
fraction of dead cells vs dishes not infected with any lentivirus (cultured neurons [2]): no significant difference
membrane capacitance (cultured neurons [3]): 63±6 pF
membrane resistance (cultured neurons [3]): 404±73 MΩ
resting potential (cultured neurons [3]): −61.2±1.2 mV
rheobase (cultured neurons [3]): 89±12 pA
monomer exchange in the assembly (HEK cells [4]): negligible
